Consider three proteins from article PMC5995969, “Structural basis for the regulation of human 5,10-methylenetetrahydrofolate reductase by phosphorylation and S-adenosylmethionine inhibition” (Nature Communications, 2018).

To fix the notation:
B1: HsMTHFR38–644 (domain or fragment)
chain: not shown
notes: Not phosphorylated; Native and SeMet-derivatized protein were crystallized; also called truncated HsMTHFR; crystallized construct
B2: full-length recombinant human MTHFR (HsMTHFR1–656), as purified (phosphorylated) (enzyme)
chain: not shown
modifications: phosphorylated with partial occupancy, up to ten sites occupied simultaneously: Ser9, Ser10, Ser18, Ser20, Ser21, Ser23, Ser25, Ser26, Ser29, Ser30, Thr34, Tyr90, Thr94, Ser103, Ser394, Thr451
notes: human 5,10-methylenetetrahydrofolate reductase (MTHFR), 656 amino acids, residues 1–656, numbered according to NP_005948.3; also called 5,10-methylenetetrahydrofolate reductase; phosphorylated HsMTHFR_(1–656); source: Sf9 (baculovirus), purified (Ni-NTA, Superdex 200, tag cleaved by TEV protease, re-passaged over Ni-NTA); not shown: FLAG, C-terminal, cleaved; His10, C-terminal, cleaved
B3: CIP-treated HsMTHFR1–656 (dephosphorylated) (enzyme)
chain: not shown
notes: human 5,10-methylenetetrahydrofolate reductase (MTHFR), residues 1–656, numbered according to NP_005948.3; Same construct as m1 after removal of 9 or 10 phosphate groups by CIP; Some residues of the cleaved C-terminal tag may be left; also called HsMTHFR_(1–656) (CIP); dephosphorylated HsMTHFR_(1–656); not shown: FLAG, C-terminal, cleaved; His10, C-terminal, cleaved

This data set deals with the molecule itself. The data set can be described thus: native MS; protein desalted into 50 mM ammonium acetate pH 6.5, infused directly, positive ion ESI-QTOF; as purified or after CIP treatment.
As usually defined, the stoichiometry N is the number of molecules, sites or subunits per partner or assembly. In the case of B1, the “stoichiometry N” value was determined as 2.
Next, B2: 2; B3: 2.
